Results reported in patent publication US20090087417A1, “METHODS FOR PROMOTING DOPAMINERGIC NEURONAL DEVELOPMENT BY USING NG4A-SUBFAMILY AND WNT-LIGANDS” (priority 2002, published 2009).

How the values were obtained:
[1] = tested on: E14.5 ventral mesencephalic precursor cultures; assay: Number of TH+ neurons in E14.5 ventral mesencephalic precursor cultures; format: cell-based, rat; settings: for effects on TH+ cell numbers, time course: 10 units, 1, 3 and 7 days in vitro; for increases in TH+ cell numbers compared with GDNF, FGF-2 or FGF-8 / increases in TH+ cell numbers compared with VM T1A conditioned medium: after 3 days; for TH+ cell numbers: increasing concentrations of partially purified Wnt, 3 days; for increase in TH+ neurons: partially purified Wnts, compared to controls (FIG. 10A)
Description: (§1) Ventral mesencephala and cerebral cortices from embryos E13.5-14.5 obtained from timed-mated Sprague-Dawley rats were dissected, mechanically dissociated and plated at a final density of 1×10^5 cells/cm2 on poly-D-lysine coated 12- or 24-well plates in a defined, serum-free medium (N2, consisting of a 1:1 mixture of F12 and DMEM containing insulin (10 ng/ml), transferrin (100 μg/ml), putrescine (100 μM), progesterone (20 nM), selenium (30 nM), glucose (6 mg/ml), and bovine serum albumin (1 mg/ml)). Purified Type 1 astrocytes were obtained from mixed glial cultures derived from the VM or CTX of P1 rats according to a standard protocol (Wagner et al., 1999). After shaking and replating into 12-well plates, astrocytes were grown to confluency in 15% fetal bovine serum-containing media and changed to N2 medium, at which time freshly dissected VM or CTX cells were plated on top of the astrocytes at a density of 1×10^5 cells/cm2. All factors were added once, at the initiation of culture, with the exception of 5-bromodeoxyuridine (BrdU), which was added 4-6 hours prior to fixation. Cultures were maintained in a humidified 5% CO2, 95% air incubator at 37° C. and fixed after given time periods with 4% paraformaldehyde for 45 minutes prior to immunocytochemical analysis.
B1A fibroblast lines stably overexpressing hemagglutanin-tagged Wnt-1a, 3a, or 5a (Shimizu H., 1997) were grown in standard complete media (DMEM+10% FBS) supplemented with 100 ug/ml G-418. For collection of conditioned media, cells were replated at low density in complete media and allowed to reach 50-75% confluency, at which point cells were washed and media was replaced with serum-free N2 (with 10 μM sodium butyrate) for 24 hours. Conditioned media from sister flasks was then harvested, pooled as lots and stored at −80° C. for up to 2 months. When compared to fresh CM, no loss of activity was observed when using this collection and storage routine. T1A CM was harvested using a similar procedure, with the exception that media was collected after 3 days in vitro.
For concentration, individual lots of CM were thawed at room temperature, divided into 80 ml aliquots, loaded onto Centricon-Plus 80 columns (Millipore) and concentrated via centrifugation according to the manufacturers instructions. Following concentration, aliquots were re-pooled and frozen at −80 C after a sample was taken for determination of protein content and Western blot analysis. In brief, 20 ug of protein was loaded onto a 10% polyacrylamide mini-gel and run under denaturing conditions at 150 V for approximately 30 minutes. After dry electroblot transfer onto PVDF membranes (Hybond P, Amersham Pharmacia Biotech, Upsalla, Sweden) and pre-incubation for 30 minutes in a blocking buffer consisting of 3% bovine serum albumin in Tris-Buffered Saline with […] Triton-X 100 (TBST), blots were incubated with mouse anti-hemagglutinin (Babco) diluted 1:1000 in TBST overnight at 4 C. After washing, blots were incubated with alkaline phosphatase-coupled goat anti-mouse IgG (Santa Cruz) diluted 1:1000 in TBST for 1 hour at room temperature. Blots were visualized using the Amersham ECF reagent and blue fluorescence quantitated using a Molecular Devices Storm 840 phosphoimager.
B1A fibroblast lines were cotransfected with the mFz8CRD-IgG/pRK5 and the pIRES puro 2 (Clontech, BD Bioscience, Erembodegem, Belgium) plasmids, using Lipofectamine Plus reagent (Invitrogen, Lidingo, Sweden) according to the instruction of the manufacturer. Upon selection for puromycin resistance (1 μg/ml Sigma, Stockholm, Sweden), clones were isolated and expanded. A clone overexpressing Fz8CRD 700× (real time RT-PCR analysis) was identified. Harvesting and partial purification of Fz8CRD conditioned media were performed as described previously. In all the blocking experiments performed, the Fz8CRD and B1A control partial purified conditioned medias were used at a final concentration of 125-250 μg/ml. […]

[2] = tested on: VM precursor cultures / Nurr1+ precursor cells; assay: BrdU incorporation (proliferation) in VM precursor cultures; format: cell-based, rat; settings: for increase in Nurr1 and BrdU double positive precursor cells (mitosis in Nurr1+ population): 1 day in vitro; for BrdU incorporation in VM precursor cultures: 3 days in vitro
Description: as §1
Fixed cultures were incubated with one of the following antibodies, diluted appropriately in phosphate-buffered saline (PBS) containing 1% bovine serum albumin and 0.3% Triton-X 100: mouse anti-BrdU, 1:50 (DAKO, Denmark), mouse anti-β-tubulin, Type III (TuJ1), 1:250 (Sigma), mouse anti-TH, 1:1000 (Incstar, USA), rabbit anti-TH, 1:250 (PelFreeze); rabbit anti-Nurr1, 1:2000 (gift from Dr. T. Perlmann, Sweden), rabbit anti-Nurr1, 1:1000 (Santa Cruz, USA) or mouse anti-Nurr1, 1:250 (BD Transduction Laboratories, USA), rabbit anti Adh2 1:4000 (gift from Dr. R. Lindahl, South Carolina). Incubations were either carried out at 4° C. overnight, or at room temperature for 1 hour. Both processes yielded similar results. After washing, cultures were incubated for 1-3 hr with appropriate secondary antibodies (biotinylated 1:500; CY2-, FITC-, or rhodamine-coupled horse-anti-mouse IgG 1:100; or goat-anti-rabbit IgG 1:100; all from Vector, USA), in the same dilution buffer. Brightfield immunostaining was visualized with the Vector Laboratory ABC immunoperoxidase kit, using either NovaRed (red), or AEC (red), SG or 3-3′ dimaminobenzidine tetrahydrochloride (DAB 0.5 mg/ml)/nickel chloride (1.6 mg/ml) (gray/black), or VIP (violet) substrates. Double-staining was performed by sequential single staining as described. The order of staining was only critical for BrdU-double labeling, in which case the BrdU procedure was always performed second. […] Photos were acquired with a Zeiss Axioplan 100M microscope and collected with a Hamamatsu camera C4742-95 (with the QED imaging software).
Only clearly stained cells were counted as positive cells. Spheres were considered positive if they contained one or more positive cell. Quantitative immunocytochemical data on individual cells represent means and standard errors of counts obtained by a blinded observer from 10-20 non-overlapping fields (cells) or in the entire well (clusters), in each of 3-4 wells per condition from 3-4 independent experiments, unless stated otherwise. For each variable, initial statistical comparisons were performed by a global ANOVA, with multiple factors of dose, time point, treatment and/or region; if significant interactions between treatment and any other variable existed, data were further divided into separate times, doses or regions. Fisher's protected least significant difference was used post hoc to identify specific points at which the treatments differed from controls (or each other) only when significant interactions between factor treatment and other variables occurred. Significance for all tests was assumed at the level of p<0.05. […]

Molecule | effects on TH+ cell numbers, time course [1] | increases in TH+ cell numbers compared with GDNF, FGF-2 or FGF-8 [1] | increases in TH+ cell numbers compared with VM T1A conditioned medium [1] | TH+ cell numbers [1] | increase in Nurr1 and BrdU double positive precursor cells (mitosis in Nurr1+ population) [2] | BrdU incorporation in VM precursor cultures [2] | increase in TH+ neurons [1]
Wnt-1: Partially purified conditioned media from stable fibroblast cell line engineered to secrete Wnt-1 ligand (protein, left off: small tags and cut ends) ANSSGRWWGIVNIASSTNLLTDSKSLQLVLEPSLQLLSRKQRRLIRQNPGILHSVSGGLQSAVRECKWQFRNRRWNCPTAPGPHLFGKIVNRGCRETAFIFAITSAGVTHSVARSCSEGSIESCTCDYRRRGPGGPDWHWGGCSDNIDFGRLFGREFVDSGEKGRDLRFLMNLHNNEAGRTTVFSEMRQECKCHGMSGSCTVRTCWMRLPTLRAVGDVLRDRFDGASRVLYGNRGSNRASRAELLRLEPEDPAHKPPSPHDLVYFEKSPNFCTYSGRLGTAGTAGRACNSSSPALDGCELLCCGRGHRTRTQRVTERCNCTFHWCCHVSCRNCTHTRVLHECL | detected as early as after 1 day in vitro | exceeded increases produced by known dopaminotrophic molecules | roughly equaled | robust dose-response increases | 3 fold | increased | 
Wnt-5a: Partially purified conditioned media from stable fibroblast cell line engineered to secrete Wnt-5a ligand (protein, left off: small tags and cut ends) IIGAQPLCSQLAGLSQGQKKLCHLYQDHMQYIGEGAKTGIKECQYQFRHRRWNCSTVDNTSVFGRVMQIGSRETAFTYAVSAAGVVNAMSRACREGELSTCGCSRAARPKDLPRDWLWGGCGDNIDYGYRFAKEFVDARERERIHAKGSYESARILMNLHNNEAGRRTVYNLADVACKCHGVSGSCSLKTCWLQLADFRKVGDALKEKYDSAAAMRLNSRGKLVQVNSRFNSPTTQDLVYIDPSPDYCVRNESTGSLGTQGRLCNKTSEGMDGCELMCCGRGYDQFKTVQTERCHCKFHWCCYVKCKKCTEIVDQFVCK | detected as early as after 1 day in vitro | exceeded increases produced by known dopaminotrophic molecules | roughly equaled | robust dose-response increases | two | not | 
Wnt-2: Partially purified / conditioned media from Wnt-2 overexpressing fibroblast cell line (protein, UniProt P21552 26-360, looked up, conditioned medium, Partially purified / conditioned media from Wnt-2 overexpressing fibroblast cell line) Protein Wnt-2: SWWYMRATGGSSRVMCDNVPGLVSRQRQLCHRHPDVMRAIGLGVAEWTAECQHQFRQHRWNCNTLDRDHSLFGRVLLRSSRESAFVYAISSAGVVFAITRACSQGELKSCSCDPKKKGSAKDSKGTFDWGGCSDNIDYGIKFARAFVDAKERKGKDARALMNLHNNRAGRKAVKRFLKQECKCHGVSGSCTLRTCWLAMADFRKTGDYLWRKYNGAIQVVMNQDGTGFTVANKRFKKPTKNDLVYFENSPDYCIRDREAGSLGTAGRVCNLTSRGMDSCEVMCCGRGYDTSHVTRMTKCECKFHWCCAVRCQDCLEALDVHTCKAPKSADWATPT |  |  |  |  |  | slight decrease | ~2 fold
Wnt-7a: Partially purified / conditioned media from Wnt-7a overexpressing fibroblast cell line (protein, UniProt P24383 32-349, looked up, conditioned medium, Partially purified / conditioned media from Wnt-7a overexpressing fibroblast cell line) Protein Wnt-7a: LGASIICNKIPGLAPRQRAICQSRPDAIIVIGEGSQMGLDECQFQFRNGRWNCSALGERTVFGKELKVGSREAAFTYAIIAAGVAHAITAACTQGNLSDCGCDKEKQGQYHRDEGWKWGGCSADIRYGIGFAKVFVDAREIKQNARTLMNLHNNEAGRKILEENMKLECKCHGVSGSCTTKTCWTTLPQFRELGYVLKDKYNEAVHVEPVRASRNKRPTFLKIKKPLSYRKPMDTDLVYIEKSPNYCEEDPVTGSVGTQGRACNKTAPQASGCDLMCCGRGYNTHQYARVWQCNCKFHWCCYVKCNTCSERTEMYTCK |  |  |  |  |  | BrdU+ increases similar to that of Wnt-1 | modest TH+ increases
